± gives the standard error. For some assays here: Variants at the floor of the assay were thinned out.
B1: glmS ribozyme (parent)
chain: AUAAAAGCGCCAGAACUACAGAAAUGUAGUUGACGAGGAGGAGGUUUAUCGAAUUUUCGGCGGAUGCCUCCAAA

Assays:
Settings in all cases: with glucosamine-6-phosphate
[1] = variants of: B1; test: self-cleavage kobs at 40 uM GlcN6P; higher = faster cleavage; RNA array
How it was run: (§1)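 Using a hybridised Cy3 probe at 37 °C, barcoded ribozyme variants transcribed in situ by E. coli RNA polymerase on sequenced MiSeq chips were monitored across tiles imaged over ~14 h. The flow contained glucosamine-6-phosphate from 40 μM to 10 mM in HEPES/KCl/Mg(OAc)2 buffer. Signals were normalised to baseline and to non-cleaving reference variants before per-tile medians were fit to one- or two-exponential decays to yield kobs. Weighted Michaelis–Menten fits across concentrations gave kcat and KM.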

[2] = variants of: B1; test: self-cleavage kobs at 2500 uM GlcN6P; higher = faster cleavage; RNA array
How it was run: as §1

[3] = variants of: B1; test: self-cleavage kobs at 10000 uM GlcN6P; higher = faster cleavage; RNA array
How it was run: as §1

[4] = variants of: B1; test: self-cleavage kobs at 640 uM GlcN6P; higher = faster cleavage; RNA array
How it was run: as §1

[5] = variants of: B1; test: self-cleavage kobs at 160 uM GlcN6P; higher = faster cleavage; RNA array
How it was run: as §1

[6] = variants of: B1; test: kcat; higher = faster cleavage; RNA array
How it was run: as §1

[7] = variants of: B1; test: KM; higher = weaker cofactor use; RNA array
How it was run: as §1

Variant	self-cleavage kobs at 40 uM GlcN6P [1] [s⁻¹]	self-cleavage kobs at 2500 uM GlcN6P [2] [s⁻¹]	self-cleavage kobs at 10000 uM GlcN6P [3] [s⁻¹]	self-cleavage kobs at 640 uM GlcN6P [4] [s⁻¹]	self-cleavage kobs at 160 uM GlcN6P [5] [s⁻¹]	kcat [6] [s⁻¹]	KM [7] [µM]
A6C G41C G43A A48G	< 1e-05						
A6C G35U G38A G43U U54G C67U	< 1e-05	< 1e-05	< 1e-05				
A6C C8G	< 1e-05	< 1e-05	< 1e-05	< 1e-05			
A6C A42U	< 1e-05		< 1e-05	< 1e-05	< 1e-05		
A6C A42C	< 1e-05		< 1e-05	< 1e-05	< 1e-05		
A6G C50A C70U	< 1e-05						
C67A U69G		6.57e-05 ± 1.3e-05		6.63e-05 ± 1.6e-05		4.96e-05 ± 1.7e-05	
A12U U55G	0.00298 ± 0.00031	0.00928 ± 0.0023	0.119 ± 0.048	0.0105 ± 0.0021	0.00618 ± 0.0009		104 ± 42
C67G C70A	< 1e-05		< 1e-05	< 1e-05		< 1e-05	
U65G C68U	5.31e-05 ± 8.4e-06	0.000758 ± 0.00013	0.00155 ± 0.00018	0.000304 ± 4.1e-05	0.000159 ± 3.2e-05	0.00167 ± 0.00057	
A6C A52C	< 1e-05	< 1e-05	< 1e-05	< 1e-05	< 1e-05		
A6G C16G	< 1e-05		3.38e-05 ± 8.1e-06	< 1e-05	< 1e-05		
A6G G59A A64U	< 1e-05		< 1e-05	< 1e-05			
U2A A3U G32A	7.12e-05 ± 1.6e-05	0.0028 ± 0.00085					
A6G C58A C67G	0.000658 ± 0.00021		0.000123 ± 3.5e-05				
A6G C16U G32C G41U C68U	< 1e-05	< 1e-05	< 1e-05	< 1e-05			
G40A G44C							2680 ± 1100
G59A G60C							30.9 ± 14
A6G A12G G66U	< 1e-05						

Variant	self-cleavage kobs at 40 uM GlcN6P [1] [s⁻¹]	self-cleavage kobs at 2500 uM GlcN6P [2] [s⁻¹]	self-cleavage kobs at 10000 uM GlcN6P [3] [s⁻¹]	self-cleavage kobs at 640 uM GlcN6P [4] [s⁻¹]	self-cleavage kobs at 160 uM GlcN6P [5] [s⁻¹]	kcat [6] [s⁻¹]	KM [7] [µM]
U65A G66U		0.00023 ± 3.3e-05	0.000342 ± 3.1e-05	7.65e-05 ± 9.6e-06		0.00046 ± 4.8e-05	3170 ± 620
U65A G66C		0.000267 ± 8.2e-05	0.000436 ± 8.9e-05	0.000156 ± 3.2e-05		0.000476 ± 5.1e-05	1400 ± 320
A6C G13U C58A A64C	< 1e-05	< 1e-05		< 1e-05	< 1e-05		
A6C G40U	< 1e-05			< 1e-05	< 1e-05		
A6G C11U A33U G60U	< 1e-05	< 1e-05	< 1e-05	< 1e-05			
G41C U69C							84.1 ± 23
U65G G66U	1.83e-05 ± 8e-06	0.000789 ± 0.0001	0.00117 ± 0.00012	0.000342 ± 5.3e-05	9.38e-05 ± 2.2e-05	0.00147 ± 0.00011	2310 ± 320
A6G A53C U56G	< 1e-05						
C67U C71U	6.24e-05 ± 6.8e-06	0.00121 ± 0.00026	0.00213 ± 0.00029	0.000403 ± 3.1e-05	0.000128 ± 1.6e-05	0.00245 ± 0.0012	
A6C C16A G29A G63C C67A	< 1e-05						
A6C C8G G51A C71U	< 1e-05		< 1e-05				
A6C G41A	< 1e-05	< 1e-05		< 1e-05			
A6G A14G G32C G44A A53C U65G C68U	< 1e-05	< 1e-05					
U65G	5.85e-05 ± 1.3e-06	0.00237 ± 8.3e-05	0.00393 ± 7.2e-05	0.000813 ± 1.9e-05	0.000217 ± 7.2e-06	0.00543 ± 0.0002	3670 ± 190
U65C	2.21e-05 ± 2.1e-06	0.000626 ± 1.6e-05	0.000705 ± 1.6e-05	0.000238 ± 5.5e-06	6.95e-05 ± 2.6e-06	0.000875 ± 9.1e-05	1690 ± 310
U65A	0.00012 ± 2.4e-06	0.00375 ± 0.00015	0.00502 ± 0.00012	0.00117 ± 3.3e-05	0.000336 ± 1.5e-05	0.0061 ± 0.001	2260 ± 500
A6G U30G U54A C67G	< 1e-05		< 1e-05				
C68U C71G		1.93e-05 ± 8.3e-06		2.44e-05 ± 1e-05		1.73e-05 ± 3.6e-06	
A6C C34U	< 1e-05	< 1e-05	< 1e-05	< 1e-05	< 1e-05		

Source: the supplement of paper PMC7125110
